Test results published in PMC8113721, “The lysosomal protein ABCD4 can transport vitamin B12 across liposomal membranes in vitro” (The Journal of Biological Chemistry, 2021).
Numbering of substitutions follows the chain as printed. In names and notes the source's numbering stands.

B1: glutathione-S-transferase (GST)–tagged LMBD1 (natural protein, human, UniProt Q9NUN5 1-540, looked up)
chain: MATSGAASAELVIGWCIFGLLLLAILAFCWIYVRKYQSRRESEVVSTITAIFSLAIALITSALLPVDIFLVSYMKNQNGTFKDWANANVSRQIEDTVLYGYYTLYSVILFCVFFWIPFVYFYYEEKDDDDTSKCTQIKTALKYTLGFVVICALLLLVGAFVPLNVPNNKNSTEWEKVKSLFEELGSSHGLAALSFSISSLTLIGMLAAITYTAYGMSALPLNLIKGTRSAAYERLENTEDIEEVEQHIQTIKSKSKDGRPLPARDKRALKQFEERLRTLKKRERHLEFIENSWWTKFCGALRPLKIVWGIFFILVALLFVISLFLSNLDKALHSAGIDSGFIIFGANLSNPLNMLLPLLQTVFPLDYILITIIIMYFIFTSMAGIRNIGIWFFWIRLYKIRRGRTRPQALLFLCMILLLIVLHTSYMIYSLAPQYVMYGSQNYLIETNITSDNHKGNSTLSVPKRCDADAPEDQCTVTRTYLFLHKFWFFSAAYYFGNWAFLGVFLIGLIVSCCKGKKSVIEGVDEDSDISDDEPSVYSA
notes: LMBD1 (lysosomal membrane protein encoded by LMBRD1), human; GST itself can dimerise; the dimer seen by cross-linking is of the GST fusion; also called LMBD1–GST; source: also reconstituted in liposomes with His-ABCD4
B2: His-tagged human ABCD4 (natural protein)
chain: AVAGPAPGAGARPRLDLQFLQRFLQILKVLFPSWSSQNALMFLTLLCLTLLEQFVIYQVGLIPSQYYGVLGNKDLEGFKTLTFLAVMLIVLNSTLKSFDQFTCNLLYVSWRKDLTEHLHRLYFRGRAYYTLNVLRDDIDNPDQRISQDVERFCRQLSSMASKLIISPFTLVYYTYQCFQSTGWLGPVSIFGYFILGTVVNKTLMGPIVMKLVHQEKLEGDFRFKHMQIRVNAEPAAFYRAGHVEHMRTDRRLQRLLQTQRELMSKELWLYIGINTFDYLGSILSYVVIAIPIFSGVYGDLSPAELSTLVSKNAFVCIYLISCFTQLIDLSTTLSDVAGYTHRIGQLRETLLDMSLKSQDCEILGESEWGLDTPPGWPAAEPADTAFLLERVSISAPSSDKPLIKDLSLKISEGQSLLITGNTGTGKTSLLRVLGGLWTSTRGSVQMLTDFGPHGVLFLPQKPFFTDGTLREQVIYPLKEVYPDSGSADDERILRFLELAGLSNLVARTEGLDQQVDWNWYDVLSPGEMQRLSFARLFYLQPKYAVLDEATSALTEEVESELYRIGQQLGMTFISVGHRQSLEKFHSLVLKLCGGGRWELMRIKVE
notes: ABCD4 (ABC transporter subfamily D member 4), human; also called His-ABCD4; wildtype ABCD4; source: also reconstituted in liposomes
B3: His-ABCD4 (Y319C) (natural protein, human)
chain: B2 chain with Y318C
notes: ABCD4, human, with the clinical missense mutation Y319C; Y319C is a clinical mutation reported in cobalamin deficiency; source: K. phaffii, purified and reconstituted in liposomes using the same procedure as used for His-ABCD4
B4: His-ABCD4 (N141K) (natural protein, human)
chain: B2 chain with N140K
notes: ABCD4, human, with the clinical missense mutation N141K; N141K is a clinical mutation reported in cobalamin deficiency; source: K. phaffii, purified and reconstituted in liposomes using the same procedure as used for His-ABCD4

Columns and labels:
[1] = target: the molecule itself; assay: cross-linking; purified His-ABCD4 and LMBD1–GST mixed; SDA and m-maleimidobenzoyl-N-hydroxysuccinimide ester (2 mM each), UV irradiation; immunoblot
His-tagged human ABCD4 = target: B2; assay: as above; settings: both partners purified
[2] = target: the molecule itself; assay: SEC; purified His-ABCD4 solubilized in β-DDM; size exclusion chromatography, polydisperse profile with a ∼360 kDa major peak
[3] = target: the molecule itself; assay: not stated; mutant His-ABCD4 reconstituted in liposomes (Fig. S11B); the text does not name the method

Binder: B1
stoichiometry N [1]: 2
stoichiometry N (His-tagged human ABCD4): 1

Binder: B2
stoichiometry N [2]: 2

Binder: B3
stoichiometry N [3]: 2

Binder: B4
stoichiometry N [3]: 2
